Experimental data taken from US9908923.

Molecular target: CXCR4 (full-length receptor) (UniProt P61073)
Experiment: cell-based or functional assay

Sequence of CXCR4 (full-length receptor) (P61073 whole entry): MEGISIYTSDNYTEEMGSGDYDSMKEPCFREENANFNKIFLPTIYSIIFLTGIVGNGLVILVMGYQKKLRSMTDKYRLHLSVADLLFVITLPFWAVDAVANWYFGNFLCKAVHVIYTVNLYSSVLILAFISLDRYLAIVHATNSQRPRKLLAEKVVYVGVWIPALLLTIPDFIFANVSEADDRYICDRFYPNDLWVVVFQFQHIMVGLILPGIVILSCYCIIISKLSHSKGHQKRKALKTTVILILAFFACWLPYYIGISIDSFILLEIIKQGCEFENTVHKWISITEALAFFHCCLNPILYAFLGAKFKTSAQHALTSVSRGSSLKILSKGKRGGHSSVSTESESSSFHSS

calcium flux EC50 against unmutated CXCL12 [fold] | Substance
6 | CXCL12 Asn33 to alanine mutant (from UniProt P48061 22-89) (ligand)
6 | CXCL12 Asn33 to arginine mutant (from UniProt P48061 22-89) (ligand)
6 | CXCL12 Asn33 to glutamine mutant (from UniProt P48061 22-89) (ligand)
